Measured values as given in ChEMBL document CHEMBL2074234, “Functional expression of the canalicular bile salt export pump of human liver” (Gastroenterology, 2002).

Legend:
Format in all cases: functional, cell membranes, Membrane vesicle
[1] = substrate: C[C@H](CCC(=O)NCC(=O)O)[C@H]1CC[C@H]2[C@@H]3[C@H](O)C[C@@H]4C[C@H](O)CC[C@]4(C)[C@H]3C[C@H](O)[C@]12C; experiment: (§1) TP_TRANSPORTER: uptake in membrane vesicles isolated from Bsep-expressing Sf9 cells
[2] = substrate: C[C@H](CCC(=O)NCCS(=O)(=O)O)[C@H]1CC[C@H]2[C@@H]3[C@@H](O)C[C@@H]4C[C@H](O)CC[C@]4(C)[C@H]3CC[C@]12C; experiment: as §1
[3] = substrate: C[C@H](CCC(=O)NCCS(=O)(=O)O)[C@H]1CC[C@H]2[C@@H]3[C@H](O)C[C@@H]4C[C@H](O)CC[C@]4(C)[C@H]3CC[C@]12C; experiment: as §1

B1: Bile salt export pump (Homo sapiens) (protein)
chain: MSDSVILRSIKKFGEENDGFESDKSYNNDKKSRLQDEKKGDGVRVGFFQLFRFSSSTDIWLMFVGSLCAFLHGIAQPGVLLIFGTMTDVFIDYDVELQELQIPGKACVNNTIVWTNSSLNQNMTNGTRCGLLNIESEMIKFASYYAGIAVAVLITGYIQICFWVIAAARQIQKMRKFYFRRIMRMEIGWFDCNSVGELNTRFSDDINKINDAIADQMALFIQRMTSTICGFLLGFFRGWKLTLVIISVSPLIGIGAATIGLSVSKFTDYELKAYAKAGVVADEVISSMRTVAAFGGEKREVERYEKNLVFAQRWGIRKGIVMGFFTGFVWCLIFLCYALAFWYGSTLVLDEGEYTPGTLVQIFLSVIVGALNLGNASPCLEAFATGRAAATSIFETIDRKPIIDCMSEDGYKLDRIKGEIEFHNVTFHYPSRPEVKILNDLNMVIKPGEMTALVGPSGAGKSTALQLIQRFYDPCEGMVTVDGHDIRSLNIQWLRDQIGIVEQEPVLFSTTIAENIRYGREDATMEDIVQAAKEANAYNFIMDLPQQFDTLVGEGGGQMSGGQKQRVAIARALIRNPKILLLDMATSALDNESEAMVQEVLSKIQHGHTIISVAHRLSTVRAADTIIGFEHGTAVERGTHEELLERKGVYFTLVTLQSQGNQALNEEDIKDATEDDMLARTFSRGSYQDSLRASIRQRSKSQLSYLVHEPPLAVVDHKSTYEEDRKDKDIPVQEEVEPAPVRRILKFSAPEWPYMLVGSVGAAVNGTVTPLYAFLFSQILGTFSIPDKEEQRSQINGVCLLFVAMGCVSLFTQFLQGYAFAKSGELLTKRLRKFGFRAMLGQDIAWFDDLRNSPGALTTRLATDASQVQGAAGSQIGMIVNSFTNVTVAMIIAFSFSWKLSLVILCFFPFLALSGATQTRMLTGFASRDKQALEMVGQITNEALSNIRTVAGIGKERRFIEALETELEKPFKTAIQKANIYGFCFAFAQCIMFIANSASYRYGGYLISNEGLHFSYVFRVISAVVLSATALGRAFSYTPSYAKAKISAARFFQLLDRQPPISVYNTAGEKWDNFQGKIDFVDCKFTYPSRPDSQVLNGLSVSISPGQTLAFVGSSGCGKSTSIQLLERFYDPDQGKVMIDGHDSKKVNVQFLRSNIGIVSQEPVLFACSIMDNIKYGDNTKEIPMERVIAAAKQAQLHDFVMSLPEKYETNVGSQGSQLSRGEKQRIAIARAIVRDPKILLLDEATSALDTESEKTVQVALDKAREGRTCIVIAHRLSTIQNADIIAVMAQGVVIEKGTHEELMAQKGAYYKLVTTGSPIS
With B1 as the protein, how does the Km [1] read?
Its Km is 11.1 µM.

And the Km [2]?
Its Km is 11.9 µM.

What about the Km [3] of the same protein?
Its Km is 4.8 µM.
